Source: patent US20240317847A1 (Bayer, published 2024)

Experiments:
[1] = target: T1, human IL-11 (Invigate, e.g., lot #C121021-19) (human, UniProt P20809 22-199); test: cell-based or functional assay
T1 sequence: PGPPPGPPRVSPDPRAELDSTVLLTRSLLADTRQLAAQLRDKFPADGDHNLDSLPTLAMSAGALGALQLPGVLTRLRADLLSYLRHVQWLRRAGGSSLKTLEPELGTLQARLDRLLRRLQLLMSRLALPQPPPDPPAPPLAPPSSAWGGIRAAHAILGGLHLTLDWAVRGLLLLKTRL

[2] = target: T2, murine IL-11 (Invigate, e.g., lot #C210819-09) (mouse, UniProt P47873 22-199); test: cell-based or functional assay
T2 sequence: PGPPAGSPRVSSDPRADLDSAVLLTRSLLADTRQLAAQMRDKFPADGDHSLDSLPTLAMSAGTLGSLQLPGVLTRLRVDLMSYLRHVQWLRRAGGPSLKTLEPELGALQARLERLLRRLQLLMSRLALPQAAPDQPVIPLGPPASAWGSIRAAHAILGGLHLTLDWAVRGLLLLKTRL

[3] = target: T1, human IL-11 (Invigate, e.g., lot …); test: SPR, Biacore T200, 25 C; antibody captured via anti-mouse Fc, IL-11 as analyte, 1:1 Langmuir fit
Description: (§1) Antibodies were captured via anti-mouse Fc IgGs (“Mouse antibody capture kit, Order No. BR100383, Cytiva) covalently amine coupled to a Series S CM5 sensor chip (Cytiva). The amine coupling was carried out according to the manufacturer's instructions using 1-ethyl-3-(3-dimethylaminopropyl) carbodiimide hydrochloride (EDC), N-hydroxysuccinimide (NHS) and ethanolamine HCl, pH 8.5 (“Amine Coupling Kit” BR-1000-50, Cytiva.). Human IL-11 (Invigate, e.g., lot #C121021-19), and murine IL-11 (Invigate, e.g., lot #C210819-09) were used as analytes. […] Based on that experiment an IL-11 concentration range was chosen to optimally determine kinetics and affinity of anti-IL-11 antibodies in multicycle kinetics mode. The sensor surface was regenerated with glycine pH 1.7 after each antigen injection. Obtained sensorgrams were double referenced (subtraction of reference flow cell signal and buffer injection) and were fitted to a 1:1 Langmuir binding model to derive kinetic data using the Biacore T200 Evaluation software or the Biacore Insight software.

[4] = target: T2, murine IL-11 (Invigate, e.g., lot …); test: as above
Description: as §1

human IL-11 = target: T3, human IL-11 (human, UniProt P20809 22-199); test: Tri-complex ELISA, hIL-11 + mIL-11Ra-Fc + hgp130-Fc, inhibition of complex formation
T3 construct: Invigate recombinant protein; biotinylated when immobilized in the Di-complex ELISA; also called hIL11; hIL-11
T3 sequence: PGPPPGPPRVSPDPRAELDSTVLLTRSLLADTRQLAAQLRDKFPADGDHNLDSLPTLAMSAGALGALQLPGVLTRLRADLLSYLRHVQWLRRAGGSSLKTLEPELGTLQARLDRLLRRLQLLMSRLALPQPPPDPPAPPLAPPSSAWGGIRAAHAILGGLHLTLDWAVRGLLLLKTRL
Description: In the Tri-complex ELISA format IL-11 antibodies are tested for their ability to inhibit the formation of a complex consisting of murine or human gp130-Fc fusion protein, with murine or human IL-11, and a murine IL11RA-Fc fusion protein. The assay format was adapted according to FIG. 18 (a, b), depending on whether murine or human IL-11 IgG antibodies were tested.
Bispecific antibodies were subjected to the experimental assay procedure described in Example 19 and IC50 [M], respectively efficacy (%) were calculated accordingly.

human IL2Ra = target: T4, human IL2Ra (human, UniProt P01589 22-240, limits assumed); test: ELISA on coated IL2Ra, signal ratio to isotype control
T4 construct: coated on the ELISA plate; also called IL-2 receptor alpha
T4 sequence (looked up): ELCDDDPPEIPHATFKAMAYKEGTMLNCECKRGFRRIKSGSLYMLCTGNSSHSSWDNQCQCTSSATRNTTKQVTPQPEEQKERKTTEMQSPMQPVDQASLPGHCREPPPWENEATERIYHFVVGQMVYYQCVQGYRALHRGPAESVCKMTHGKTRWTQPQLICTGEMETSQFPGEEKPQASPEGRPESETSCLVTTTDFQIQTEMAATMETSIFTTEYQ
Description: IL2RA (Peprotech, Germany, #200-02RC) was coated at 1 or 0 μg/ml (buffer only control) in 30 μl coating buffer (Candor, #113500) per well on a 384 well microtiter plate (Maxisorb, Nunc, #460518) over night at 4-8° C. After two washes with 50 μl/well washing buffer (PBS+0.05% Tween, pH 7.4), the plates were incubated for two hours at room temperature with 50 μl/well SmartBlock (Candor, #113500). After blocking, the plates were washed three times with washing buffer. Then, a dilution series of the respective antibody (1E-7 [M] down to 2E-13 [M]) in PBS+0.05% Tween, 10% SmartBlock were added in 30 μl to the microtiter plate and incubated for 90 min at room temperature. After three additional washes, 30 μl anti mouse IgG HRP-conjugated antibody (Biotechne, HAF007), diluted 1:1000 in PBS+0.05% Tween (pH 7.4), were added per well and incubated for one hour. […] Relative fluorescence was measured with a microtiter plate reader at 535/590 nm.
Bispecific antibodies were subjected to the experimental assay procedure described in Example 20. Ratios of the signals generated at an antibody concentration of 1E-07 [M] by the respective bispecific antibody versus those of an isotype control antibody were calculated and are shown in Table E29. […]

Row | Efficacy (%), Stat3 reporter gene assay, human IL11RA, 0.78 nM hIL-11 [1] | IC50 [M], Stat3 reporter gene assay, HEK 293F transfected with human IL11RA, 0.78 nM hIL-11 [1] | Efficacy (%), Stat3 reporter gene assay, mouse Il11ra, 3.13 nM mIL-11 [2] | IC50 [M], Stat3 reporter gene assay, HEK 293F transfected with mouse Il11ra, 3.13 nM mIL-11 [2] | Kd [3] | Kd [4] | Efficacy (%) (human IL-11) | IC50 (human IL-11) | binding result (human IL2Ra) | Binder
1 | 51.5% | 1.07e-07 M | 49% | 3.31e-07 M | 0.053 µM | 0.042 µM | – | – | – | TPP-18087 (antibody, mouse IgG1, V domains shown, mIgG1, Lambda) VH: EVQLLESGGGLVQPGGSLRLSCAASGFTFSHYDMNWLRQAPGKGLEWVGVISYDGSNKFYADFVKGRFTISRDNSKNTLYLQMNSLRAEDTAVYYCARTPGSHFDYWGQGTLVTVSS VL: QSVLTQPPSASGTPGQRVTISCSGSSSNIGNNAVNWYQQLPGTAPKLLIYYDDLLPSGVPDRFSGSKSGTSASLAISGLRSEDEADYYCSAWDDSLNGVVFGGGTKLTVLG
2 | 65.6% | 1.5e-08 M | 80.7% | 9.6e-09 M | 0.011 µM | 0.009 µM | – | – | – | TPP-19528 (antibody, mouse IgG1, V domains shown, mIgG1, Lambda) VH: EVQLLESGGGLVQPGGSLRLSCAASGFTFSIYAMSWVRQAPGKGLEWVSSISDTGDRTYYADSVKGRFTISRDNSKNTLYLQMNSLRAEDTAVYYCARSNWGSLDYWGQGTLVTVSS VL: QSVLTQPPSASGTPGQRVTISCSGSSSNIGSNYVYWYQQLPGTAPKLLIYYDDLLPSGVPDRFSGSKSGTSASLAISGLRSEDEADYYCAAWDDSLSGRVFGGGTKLTVLG
3 | – | – | – | – | – | – | 98.5% | 0.000696 µM | no binding (tested: 1E-07 M antibody) | TPP-29603 (bispecific antibody, IgG1, scFv-kih-mIgG1; bispecific comprising CDRs of TPP-29528 and TPP-29519) chain 1: QVQLVESGGGVVQPGRSLRLSCAASGFTFSHYDMHWVRQAPGKGLEWVAVISYHGSVKFYADSVKGRFTISRDNSKNTLYLQMNSLRAEDTAVYYCARTPGFHFDYWGQGTLVTVSSGGGGSGGGGSGGGGSQSVLTQPPSASGTPGQRVTISCSGSSSNIGSNYVSWYQQLPGTAPKLLIYYDDLRPSGVPDRFSGSKSGTSASLAISGLRSEDEADYYCSAWDDSLSGVVFGGGTKLTVLGGGGSGGGGSGGGGSGVECPPCPAPPVAGPSVFIFPPKPKDVLTITLTPKVTCVVVDISKDDPEVQFSWFVDDVEVHTAQTQPREEQFNSTFRSVSELPIMHQDWLNGKEFKCRVNSAAFPAPIEKTISKTKGRPKAPQVYTIPPCKEQMAKDKVSLWCMITDFFPEDITVEWQWNGQPAENYKNTQPIMDTDGSYFVYSKLNVQKSNWEAGNTFTCSVLHEGLHNHHTEKSLSHSPGK chain 2: EVQLLESGGGLVQPGGSLRLSCAASGFTFSSYGMHWVRQAPGKGLEWVAVISYDGSYKYYADSVKGRFTISRDNSKNTLYLQMNSLRAEDTAVYYCAAGVPDYWGQGTLVTVSSGGGGSGGGGSGGGGSQSVLTQPPSASGTPGQRVTISCSGSSSNIGSDYDVHWYQQLPGTAPKLLIYSNEERPSGVPDRFSGSKSGTSASLAISGLRSEDEADYYCSAWDSSLSGPVFGGGTKLTVLGGGGSGGGGSGGGGSGVECPPCPAPPVAGPSVFIFPPKPKDVLTITLTPKVTCVVVDISKDDPEVQFSWFVDDVEVHTAQTQPREEQFNSTFRSVSELPIMHQDWLNGKEFKCRVNSAAFPAPIEKTISKTKGRPKAPQVCTIPPPKEQMAKDKVSLSCAITDFFPEDITVEWQWNGQPAENYKNTQPIMDTDGSYFVVSKLNVQKSNWEAGNTFTCSVLHEGLHNHHTEKSLSHSPGK
4 | – | – | – | – | – | – | 104% | 0.0016 µM | no binding (tested: 1E-07 M antibody) | TPP-29697 (bispecific antibody, IgG1, scFv-kih-hIgG1 with Fc-silencing mutations; bispecific comprising CDRs of TPP-29528 and TPP-29519) chain 1: QVQLVESGGGVVQPGRSLRLSCAASGFTFSHYDMHWVRQAPGKGLEWVAVISYHGSVKFYADSVKGRFTISRDNSKNTLYLQMNSLRAEDTAVYYCARTPGFHFDYWGQGTLVTVSSGGGGSGGGGSGGGGSQSVLTQPPSASGTPGQRVTISCSGSSSNIGSNYVSWYQQLPGTAPKLLIYYDDLRPSGVPDRFSGSKSGTSASLAISGLRSEDEADYYCSAWDDSLSGVVFGGGTKLTVLGGGGSGGGGSGGGGSGVECPPCPAPPVAGPSVFLFPPKPKDTLMISRTPEVTCVVVGVSHEDPEVKFNWYVDGVEVHNAKTKPREEQYNSTYRVVSVLTVLHQDWLNGKEYKCKVSNKQLPSPIEKTISKAKGQPREPQVYTLPPCRDELTKNQVSLWCLVKGFYPSDIAVEWESNGQPENNYKTTPPVLDSDGSFFLYSKLTVDKSRWQQGNVFSCSVMHEALHNHYTQKSLSLSPGK chain 2: EVQLLESGGGLVQPGGSLRLSCAASGFTFSSYGMHWVRQAPGKGLEWVAVISYDGSYKYYADSVKGRFTISRDNSKNTLYLQMNSLRAEDTAVYYCAAGVPDYWGQGTLVTVSSGGGGSGGGGSGGGGSQSVLTQPPSASGTPGQRVTISCSGSSSNIGSDYDVHWYQQLPGTAPKLLIYSNEERPSGVPDRFSGSKSGTSASLAISGLRSEDEADYYCSAWDSSLSGPVFGGGTKLTVLGGGGSGGGGSGGGGSGVECPPCPAPPVAGPSVFLFPPKPKDTLMISRTPEVTCVVVGVSHEDPEVKFNWYVDGVEVHNAKTKPREEQYNSTYRVVSVLTVLHQDWLNGKEYKCKVSNKQLPSPIEKTISKAKGQPREPQVCTLPPSRDELTKNQVSLSCAVKGFYPSDIAVEWESNGQPENNYKTTPPVLDSDGSFFLVSKLTVDKSRWQQGNVFSCSVMHEALHNHYTQKSLSLSPGK
